The record followed here is paper PMC10163345 (2023).

Where no end group is shown, it is not given here.

This assay has as its target constitutively active truncated His-tagged WT calcineurin (6×His–CNAαWT:CNB) (Homo sapiens (Human),Homo sapiens …, UniProt Q08209,P63098). The assay is described as follows: His-tag pulldown + immunoblot.

Sequence of constitutively active truncated His-tagged WT calcineurin (6×His–CNAαWT:CNB) (Q08209 1-392, one chain of several): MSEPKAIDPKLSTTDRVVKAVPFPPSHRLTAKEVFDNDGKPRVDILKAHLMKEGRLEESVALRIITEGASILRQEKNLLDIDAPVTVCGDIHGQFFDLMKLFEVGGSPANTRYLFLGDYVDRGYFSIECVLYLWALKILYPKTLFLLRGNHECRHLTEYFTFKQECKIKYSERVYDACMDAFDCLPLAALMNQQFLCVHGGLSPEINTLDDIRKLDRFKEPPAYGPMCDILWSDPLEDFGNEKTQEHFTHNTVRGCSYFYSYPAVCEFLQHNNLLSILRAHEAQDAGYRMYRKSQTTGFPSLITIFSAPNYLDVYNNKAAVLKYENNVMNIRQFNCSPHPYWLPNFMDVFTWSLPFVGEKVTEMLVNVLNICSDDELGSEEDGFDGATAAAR

B1: GST-tagged POC5 PxIxIT peptide (POC5 PDVRIS) (protein)
chain: KGELVPDVRISTIHDI
modifications: also: GST-tagged fusion
B1: the binding result is recorded as “binds”.
